Results taken from the supplement of paper PMC9170038.

Tested on: K4 kissing-loop RNA reporter
Test: apparent KD of K4 kissing-loop reporter; higher = weaker reporter binding
Conditions: Eterna round: R107
Experimental: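 RNA-MaP round R107: designed RNA switches with theophylline, tryptophan, arginine or FMN aptamers are transcribed on-chip within common flanks. They are titrated with a labelled K4 kissing-loop RNA reporter in RNA-MaP buffer (100 mM Tris pH 7.5, 80 mM KCl, 4 mM MgCl2), without ligand or with the indicated ligand. Median apparent KD per design.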

[1] = input ligand: theophylline 20 uM
[2] = input ligand: tryptophan 2.4 mM
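Further: bound reporter read as fluorescence of individual clusters on recovered sequencing chips by microscopy, with normalized cluster intensities fitted with a binding model.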

| Sequence | apparent KD of K4 kissing-loop reporter (input ligand: FMN 200 uM) | apparent KD of K4 kissing-loop reporter (input ligand: arginine 13.2 mM) | apparent KD of K4 kissing-loop reporter (input ligand: none) | apparent KD of K4 kissing-loop reporter [1] | apparent KD of K4 kissing-loop reporter [2] |
| --- | --- | --- | --- | --- | --- |
| UAGGAGUGAUGUUCCUUUAGCAGGUAGGAAGGAGCGCCCAUUUGGGCAGGUAGGUCGCCUACUGGCCCUAAGUUAAACCUUAGGC [KL-SSArg-A12] | 160 nM | 161 nM | 146 nM | 161 nM | 118 nM |
| UAGGAUUUUUCGGCCGCCACUCUAGAUUCUGUGUAUUAUCUACGACUUGAAGUGAUGUUUCAGGAGAGGACCGGGAAGAUAUAAC [theeternabot_exclusion_KL_Trp_B_27] | 226 nM | 210 nM | 238 nM | 307 nM | 225 nM |
| UAGGUGCCGAACCAGUGAUGUUGGAGUCAUCGAGGACCGGUACGGCCGCCACUCGGCAGCGCCGGCGCGAUUAAUUGCGGAGACA [theeternabot_sameState_KL_Trp_A_7] | 689 nM | 390 nM | 596 nM | 470 nM | 698 nM |
| UAGUCCUAGUGAUCCUUAUCAAGUGGUGGGCGAGGACCGGUACGGCCGCCACUCGAAUAUGCAGUGAUGUUGUAAUCCGGACAAU [Exclusion - Tryptophan A (Freestyle 11)] | 897 nM | 906 nM | 852 nM | 899 nM | 580 nM |
| UAGUCCUCUUCUUAUUUAUUCCCUAAUGCUAAGGAUAUCCGAAUUCGGAGAAGGUAGUGAUGUUACUUGAAGGGACAUAUUUAUU [AK6 Exc FMN A] | 412 nM | 554 nM | 684 nM | 771 nM | 617 nM |
| UAUAGGGAUAGUGAUGUUAUCCCAUGUGAUACCAGUGCCAUCCAACACCCUUGGCAGCAUACGGGCAGUGAUGUUGUUCUUGGUA [Exclusion Theophylline A GF 14] | 102 nM | 88.9 nM | 99.1 nM | 89.5 nM | 97.2 nM |
| UAUAUACAUAGAUAGUUGUAUAUCGAGGAAGGAGCGUGCGCAGGCACAGGUAGGUCGCCUCAGCGCACGAGUGAUGUUCGUGGGC [Tezale] | 247 nM | 168 nM | 267 nM | 241 nM | 246 nM |
| UAUAUAGUGACGGCCGCCACUAUAUUAAUGUUUUUGUUAGAGUGAUGUUUUGUUUUAUAUUUUUAUAGGACCGGGUUAUAUGUUA [klppxmullin] | 497 nM | 377 nM | 626 nM | 480 nM | 404 nM |
| UAUAUAGUGACGGCCGCCACUAUUGUGAUGUAGUUGUUAGAGUGAUGUUUUGUUGUUUGAUUUUGUAGGACCGGGUUAUAUGUUA [rccrwzmullin] | 842 nM | 565 nM | 812 nM | 612 nM | 668 nM |
| UAUAUAGUGACGGCCGCCACUAUUGUGAUGUUGUUGUUAGAGUGAUGUUUUGUUGUUUGAUUUUGUAGGACCGGGUUAUAUGUUA [ffdfzmullin] | 780 nM | 500 nM | 615 nM | 567 nM | 562 nM |
| UAUGGAGUGAUGUUCCGUAUGACUGUCGAUACCAGCCUGUGCCUUGGCCCUUGGCAGCGAAAAGCAUCGGCUAAUGUCGCGUCAU [Onaraed] | 201 nM | 191 nM | 194 nM | 221 nM | 184 nM |
| UAUGUACACGGGUAGUGGUACAUCGAGGAAGGAGCGUGCGCAGGCACAGGUAGGUCGCCUCAGCGCACGAGUGAUGUUCGUGGGC [Inares] | 327 nM | 259 nM | 306 nM | 298 nM | 265 nM |
| UAUUAAUUGUCAGGAUAUCGAAAUCGAGUGAUGUUCGUAAAUUAAUUAUUAUUAAUAAUAUUUAUACGAGAAGGGACAUUAUUUA [JR_SSFMNB_Sub002] | 236 nM | 671 nM | 758 nM | 780 nM | 532 nM |
| UAUUGGAGUGAUGUUCCAUUAACGAUCCUACGAGGACCGGUACGGCCGCCACUCGAAAUGCAGUGAUGUUGCAGCCAGCCGUAAA [Exclusion Trptophan A GF 7] | 174 nM | 167 nM | 183 nM | 188 nM | 162 nM |
| UCAAGAGAACUUAAAUUUGAUCAACGCUCGCGAGGACCGGUACGGCCGCCACUCGACCGUUAGUGCCUCAUCCAGUGAUGUUGGG [theeternabot_sameState_KL_Trp_A_6] | 537 nM | 394 nM | 500 nM | 508 nM | 476 nM |
| UCACUUAAAAGAAAUAGAAAUUCUAGAGAUACCAGCGACACUCUUCGCCCUUGGCAGCUCAAGUGGGACCCAGUGAUGUUGGGCG [Xeceteza] | 426 nM | 289 nM | 413 nM | 269 nM | 324 nM |
| UCAGUUCACGGGCGCCGCAAACCGCAGGAUACCAGUCACAUCGCUGACCCUUGGCAGCCUAUGGACUAGUGAUGUUAGUCCAGGA [theeternabot_sameState_KL_Theo_A_37] | 98.5 nM | 95.2 nM | 128 nM | 117 nM | 115 nM |
| UCCAGCAGUACUGAUACCAGACUGCAUGUAGUGAUGUUGCAUAAGGGCAUAGAUGUCUCAGUCCCUUGGCAGCAGUACUGUUGCA [Theo B SS t1] | 317 nM | 239 nM | 284 nM | 191 nM | 257 nM |
| UCCAUGCGCGCACGGUACUUGCCCGCAUAUCGAGGACCGGUACGGCCGCCACUCGUGCCAGUGAUGUUGGCCGGAGAGCCUUAUG [theeternabot_sameState_KL_Trp_A_22] | 476 nM | 349 nM | 475 nM | 449 nM | 524 nM |
| UCCUAGGCUCGAAAGAGCCUAGGAUGGACUCAGGAUAUCCGGAAACGGAGAAGGGAGUCACUAGUGAUGUUAGGGACUCCCUAAA | 87.5 nM | 79 nM | 101 nM | 70.3 nM | 87.5 nM |
| UCCUGCAAUCAGCCACGAAAGUGGAUGGAUACCAGAGUCGAAAGACUCCCUUGGCAGCCAGUGAUGUUGGAAGCAGGUAAAUAAA | 583 nM | 501 nM | 761 nM | 342 nM | 1290 nM |
| UCGAAGGAUGGAAGGAGCGCUCGUCAGUCCUGCGAGUGAUGUUCGUGGGUAAAUAGUCGCGAGCAGGUAGGUCGCCAUCUUGAGA [Lageso] | 110 nM | 96.9 nM | 101 nM | 152 nM | 118 nM |

| Sequence | apparent KD of K4 kissing-loop reporter (input ligand: FMN 200 uM) | apparent KD of K4 kissing-loop reporter (input ligand: arginine 13.2 mM) | apparent KD of K4 kissing-loop reporter (input ligand: none) | apparent KD of K4 kissing-loop reporter [1] | apparent KD of K4 kissing-loop reporter [2] |
| --- | --- | --- | --- | --- | --- |
| UCGACAGUGAACGAUACCAGCGUCACGUGGCUGGUGGUCACAUGAGUGAUGUUCAUGUAACGCCCUUGGCAGCGUGCACGUAUCC [KL-XTheo-B9] | 234 nM | 206 nM | 220 nM | 199 nM | 199 nM |
| UCGCGUCUGCGAGGAUAUCGGAUUAGAGUGAUGUUCUAUAAACGCCCAGUGAUGUUGGAUGCGAUACGAGAAGGCGCUGGGCGCA [Same State FMN B GF8] | 178 nM | 280 nM | 203 nM | 321 nM | 167 nM |
| UCGGACCCUGGAGGAUAUGAGUCGAGUGAUGUUCGGCGGUCCAUGCUGGUGCGGCGUUAUGCCCUUUUAGAAGGCCAGGGUCCGA [#2 Exclusion - FMN B Attempt #12 (HarryS)] | 220 nM | 147 nM | 194 nM | 174 nM | 162 nM |
| UCGGACCCUGGAGGAUAUGAGUCUAGUGAUGUUAGGCGGUCCAUGCCGGUGCGGCGUUAUGCCCUUUUAGAAGGCCAGGGUCCGA [#2 Exclusion - FMN B Attempt #14 (HarryS)] | 143 nM | 78.8 nM | 107 nM | 102 nM | 112 nM |
| UCGGAUGUUCUGUCGAGAUGAGCAAUAGCACGAGGACCGGUACGGCCGCCACUCGACCCAGUGAUGUUGGGUGGCUAAGUUCAGC [Geragean] | 265 nM | 239 nM | 208 nM | 285 nM | 147 nM |
| UCUAUAGUUAGAGGAUAUUGAAUUAGAGUGAUGUUCUAUAGAAGACCAGUGAUGUUGGAUAGUAUACAAGAAGGCUGAUCUAUAG [Same State FMN B GF 1] | 208 nM | 665 nM | 451 nM | 883 nM | 499 nM |
| UCUGCUGUAUAUGAUACCAGCAGUGAGAGACAGGAAGUAUAGUGAUGUUAUAUGAGAGAAUGCCCUUGGCAGCGUGUGCGGGUGG [SSTheophylB.Y] | 119 nM | 111 nM | 81.7 nM | 119 nM | 66.2 nM |
| UCUGCUGUAUAUGAUACCAGCAGUGAGAGACGAGAAGUAUAGUGAUGUUAUAUGAGAGAAUGCCCUUGGCAGCGUGUGCGUGUGG [SSTheophylB.aA] | 96.3 nM | 94.3 nM | 74.4 nM | 102 nM | 64.8 nM |
| UCUGGAGCAUAUGAUACCAGCAGUGAGAGACAGGAAGUAUAGUGAUGUUAUAUGAGAGAAUGCCCUUGGCAGCGUGUGCAGUGGC [SSTheophylB.P] | 104 nM | 96.5 nM | 65 nM | 94.9 nM | 59.7 nM |
| UCUUUUGUAUAUGAUACCAGCAGUGAGAGACAGGAAGUAUAGUGAUGUUAUAUGAGAGAAUGCCCUUGGCAGCGUGUGCGGUGGG [SSTheophylB.U] | 151 nM | 146 nM | 114 nM | 178 nM | 108 nM |
| UCUUUUGUAUAUGAUACCAGCAGUGAGAGACAGGAAGUAUAGUGAUGUUAUAUGAGAGAAUGCCCUUGGCAGCGUGUGCGGUUGG [SSTheophylB.V] | 95 nM | 174 nM | 322 nM | 268 nM | 137 nM |
| UGAAAUCGAAUUCCGCGUGCAACGCCAGUAAAGGAUAUCAUCACACUGAGAAGGUUACGAAGCGGAGUGAUGUUCCGCUCUAUCC [theeternabot_sameState_KL_FMN_A_50] | 105 nM | 112 nM | 120 nM | 114 nM | 98.5 nM |
| UGACAUUGCUCAGAUACCAGACUUGAGGAACACCCAAGUGCCAAAACGUACUAAAUAAAAGUCCCUUGGCAGCUGAGCAAUGUCU [TheoBX 13] | 91.5 nM | 30.6 nM | 46.2 nM | 60.9 nM | 59.4 nM |
| UGACAUUGCUCAGAUACCAGACUUGAGGAUCACCCAGGUGCCAAACGUACAAUAAUAAAAGUCCCUUGGCAGCUGAGCAAUGUCU [TheoBX 14] | 65.7 nM | 51.7 nM | 30.2 nM | 69.9 nM | 55.3 nM |
| UGACAUUGCUCAGAUACCAGACUUGAGGAUCACCCAGGUGCCAAAUAAACGUACAUAAAAGUCCCUUGGCAGCUGAGCAAUGUCU [TheoBX 11] | 64.8 nM | 24 nM | 55.9 nM | 85.8 nM | 76.5 nM |
| UGACAUUGCUCAGAUACCAGACUUGAGGAUCACCCAGGUGCCAAAUACGUACAAAUAAAAGUCCCUUGGCAGCUGAGCAAUGUCU [TheoBX 12] | 72.1 nM | 55.6 nM | 63.1 nM | 113 nM | 29.3 nM |
| UGACGCCUGUCGGCCGCCACUCACAGCAGCCAGUGAUGUUGGAUUGUAGCGGAGUGAUGUUUCGCGAGGACCGGGACUGCAGUUG [Same State Tryptophan B GF 13] | 259 nM | 249 nM | 260 nM | 321 nM | 250 nM |
| UGACGUUUGGGAAGGAGCGGAAUGUAAUACGGAAUGCGUGGAGAUGCAGUGAUGUUGCAGAUCCAGGUAGGUCGCCCAAGGGACG [Soanina] | 99.5 nM | 84.9 nM | 91.2 nM | 79.3 nM | 87.8 nM |
| UGACUACAGGAAUAAUAAUCUUAGUGAUGUUAGGAUAUGCUGAUAAGCAGAAGGAACUGAGAUCGAAAGAUCUCAAAAGUAGUCU [#05 K4 FMN A Exclusion] | 445 nM | 167 nM | 202 nM | 236 nM | 199 nM |
| UGACUGGACUGAAGGAGCGAGCGAGACAAAGUCUCGAAUUUUCAGUGAUGUUGAUAUAUAACUCAGGUAGGUCGCAGUCUAGUCU [ArgBS 8 #SwitchBubble #StaticStem] | 395 nM | 423 nM | 543 nM | 438 nM | 441 nM |
| UGACUGGACUGAAGGAGCGCCACGGUCAUAGACCGAAUAAGGAGUGAUGUUCCACAUAAAAGGCAGGUAGGUCGCAGUCUAGUCU [ArgBS 2 #SwitchBubble #StaticStem] | 121 nM | 113 nM | 107 nM | 98.1 nM | 101 nM |
| UGACUGGACUGAAGGAGCGCGAAACUCCUAGUGAUGUUAGGAAAACGAGACAAAGUCUCGACGCAGGUAGGUCGCAGUCUAGUCU | 125 nM | 102 nM | 103 nM | 115 nM | 135 nM |
